Common to all, as to assay: EMSA
(In general: In EMSA bound probe runs differently from free probe, usually more slowly.)

Data set [1] concerns the target GST-PTBP1 (UniProt P26599 1-557).
The target in data set [2] is T1, 5xH-PTBP1 (UniProt P26599 1-557).
For data set [3], the target named is PTBP2 (TnT) (UniProt Q9UKA9 1-531).
For data set [4], the target named is GST-PTBP2 (UniProt Q9UKA9 1-531).
Data set [5] deals with hnRNP A1 (TnT) (UniProt P09651-2 1-320).
Data set [6] concerns the target GST-hnRNP A1 (UniProt P09651-2 1-320).
The target of data set [7] is T1, 5xH-PTBP1. The source holds these as a separate data set.

Where a chain is given by its changes, count along the chain named. Where two headings read alike, the source gives them in different places.

T1 sequence (P26599 whole entry): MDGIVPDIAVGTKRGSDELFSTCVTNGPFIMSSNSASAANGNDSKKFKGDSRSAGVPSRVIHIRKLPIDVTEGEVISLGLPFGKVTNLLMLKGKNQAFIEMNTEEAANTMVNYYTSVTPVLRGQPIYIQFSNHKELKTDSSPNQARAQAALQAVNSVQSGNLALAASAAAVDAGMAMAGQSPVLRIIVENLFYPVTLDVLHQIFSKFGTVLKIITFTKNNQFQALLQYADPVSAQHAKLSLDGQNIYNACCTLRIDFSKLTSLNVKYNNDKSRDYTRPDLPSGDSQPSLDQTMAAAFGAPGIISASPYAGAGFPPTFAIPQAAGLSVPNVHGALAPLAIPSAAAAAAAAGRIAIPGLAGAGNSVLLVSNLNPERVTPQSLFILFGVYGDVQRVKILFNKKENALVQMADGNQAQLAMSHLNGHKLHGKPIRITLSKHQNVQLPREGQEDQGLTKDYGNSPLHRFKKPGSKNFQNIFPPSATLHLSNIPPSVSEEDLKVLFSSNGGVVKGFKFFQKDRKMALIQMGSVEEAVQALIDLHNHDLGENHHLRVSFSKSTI
GST-PTBP1, sequence (P26599 whole entry): as above
GST-PTBP2, sequence (Q9UKA9 whole entry): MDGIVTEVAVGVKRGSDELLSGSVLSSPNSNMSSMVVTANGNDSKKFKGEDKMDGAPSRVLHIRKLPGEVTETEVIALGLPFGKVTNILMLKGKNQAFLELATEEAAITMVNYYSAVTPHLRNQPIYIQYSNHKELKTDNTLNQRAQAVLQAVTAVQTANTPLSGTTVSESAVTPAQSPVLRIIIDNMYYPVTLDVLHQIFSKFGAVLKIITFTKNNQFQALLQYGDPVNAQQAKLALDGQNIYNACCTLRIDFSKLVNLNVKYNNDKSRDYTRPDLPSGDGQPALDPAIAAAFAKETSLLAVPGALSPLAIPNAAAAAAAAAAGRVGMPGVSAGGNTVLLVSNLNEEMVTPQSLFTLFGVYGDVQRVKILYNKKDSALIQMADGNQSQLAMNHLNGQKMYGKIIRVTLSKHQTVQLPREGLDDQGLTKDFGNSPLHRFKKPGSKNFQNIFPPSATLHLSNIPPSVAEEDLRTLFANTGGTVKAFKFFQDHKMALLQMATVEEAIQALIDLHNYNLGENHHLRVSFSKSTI
PTBP2 (TnT), sequence (Q9UKA9 whole entry): as above

B1: U7/SPL (structured_RNA)
RNA: CAGUGUUACAGCUCUUUUAGAAUUUUUGGAGUAGGCUUUCUGGCUUUUUACCGGAAAGCCCCUCUUAUG
B1: the binding result is given as “binds” in data set [1], “binds” in data set [2] and “no binding” in data set [3].

B2: U7/PU (structured_RNA)
RNA: B1 RNA with C12G, U13A, C14G, U15A, U26G, G28C, G29U
As to B2, the binding result in data set [1] and in data set [2] was “binds” each time.

B3: U7/2xMut (structured_RNA)
RNA: B1 RNA with C12G, U13A, C14G, U15A
For B3, the binding result in data set [4] is recorded as “no binding”; in data set [5], “binds”.

B4: U7/2xGA (structured_RNA)
RNA: B1 RNA with A19G, G20A, U26G, G28C, G29U, A30G, G31A
For the molecule B4, the binding result is “no binding” in data set [6], “no binding” in data set [5] and “binds” in data set [7].

(Values after publication doi:10.1101/2023.08.19.553944.)
